From paper doi:10.1101/444885 (bioRxiv, 2018)
Changes are numbered by the printed parent chain. In names and notes the source's numbering stands. Where two headings read alike, the source gives them in different places.

T1: DnaD DDBH2 domain (residues 129-232) (Bacillus subtilis, UniProt P39787 129-232)
T1 sequence: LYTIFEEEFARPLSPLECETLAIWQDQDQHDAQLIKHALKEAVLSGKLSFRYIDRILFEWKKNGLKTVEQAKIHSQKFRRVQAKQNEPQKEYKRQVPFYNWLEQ

B1: DnaA N191C, labelled with Cy3B or Atto647N (natural protein)
chain: MENILDLWNQALAQIEKKLSKPSFETWMKSTKAHSLQGDTLTITAPNEFARDWLESRYLHLIADTIYELTGEELSIKFVIPQNQDVEDFMPKPQVKKAVKEDTSDFPQNMLNPKYTFDTFVIGSGNRFAHAASLAVAEAPAKAYNPLFIYGGVGLGKTHLMHAIGHYVIDHNPSAKVVYLSSEKFTNEFICSIRDNKAVDFRNRYRNVDVLLIDDIQFLAGKEQTQEEFFHTFNTLHEESKQIVISSDRPPKEIPTLEDRLRSRFEWGLITDITPPDLETRIAILRKKAKAEGLDIPNEVMLYIANQIDSNIRELEGALIRVVAYSSLINKDINADLAAEALKDIIPSSKPKVITIKEIQRVVGQQFNIKLEDFKAKKRTKSVAFPRQIAMYLSREMTDSSLPKIGEEFGGRDHTTVIHAHEKISKLLADDEQLQQHVKEIKEQLK
B2: DnaA A198C, labelled with Cy3B or Atto647N (natural protein)
chain: B1 chain with C191N, A198C
modifications: Cy3B-maleimide or Atto647N-maleimide on the cysteine at 198
B3: DnaA domain I (residues 1-81) (domain or fragment)
chain: MENILDLWNQALAQIEKKLSKPSFETWMKSTKAHSLQGDTLTITAPNEFARDWLESRYLHLIADTIYELTGEELSIKFVIP
B4: truncated DnaD DDBH2 domain (residues 129-196) (domain or fragment)
chain: LYTIFEEEFARPLSPLECETLAIWQDQDQHDAQLIKHALKEAVLSGKLSFRYIDRILFEWKKNGLKTV
B5: DnaA(N191C/A198C) (natural protein)
chain: B1 chain with A198C
B6: DnaD (full length) (natural protein)
chain: MKKQQFIDMQEQGTSTIPNLLLTHYKQLGLNETELILLLKIKMHLEKGSYFPTPNQLQEGMSISVEECTNRLRMFIQKGFLFIEECEDQNGIKFEKYSLQPLWGKLYEYIQLAQNQTQERKAEGEQKSLYTIFEEEFARPLSPLECETLAIWQDQDQHDAQLIKHALKEAVLSGKLSFRYIDRILFEWKKNGLKTVEQAKIHSQKFRRVQAKQNEPQKEYKRQVPFYNWLEQ

Columns and labels:
FRET or BRET = target: the molecule itself; test: FRET or BRET
[1] = target: T1, DnaD DDBH2 domain (residues 129-232); test: NMR titration
[2] = target: T1, DnaD DDBH2 domain (residues 129-232); test: NMR titration; remark: listed apart in the source
[3] = target: B3; test: NMR titration
cross-linking = target: the molecule itself; test: cross-linking
DnaA(N191C/A198C) = target: B5; test: loss and rescue of BMOE cross-linking of DnaA-DNA filaments

B1: binds (FRET or BRET).

B2: binds (FRET or BRET).

Binder B3 has a Kd [1] of 665 ± 251 µM and a Kd [2] of 768 ± 168 µM.

B4: binds [3].

B5: binds (cross-linking).

B6: binds (DnaA(N191C/A198C)).
